Experimental data reported in patent US20200199206A1 (AC THERA, published 2020).

T1: LF-Biotin (B. anthracis, UniProt P15917 34-809)
T1 sequence: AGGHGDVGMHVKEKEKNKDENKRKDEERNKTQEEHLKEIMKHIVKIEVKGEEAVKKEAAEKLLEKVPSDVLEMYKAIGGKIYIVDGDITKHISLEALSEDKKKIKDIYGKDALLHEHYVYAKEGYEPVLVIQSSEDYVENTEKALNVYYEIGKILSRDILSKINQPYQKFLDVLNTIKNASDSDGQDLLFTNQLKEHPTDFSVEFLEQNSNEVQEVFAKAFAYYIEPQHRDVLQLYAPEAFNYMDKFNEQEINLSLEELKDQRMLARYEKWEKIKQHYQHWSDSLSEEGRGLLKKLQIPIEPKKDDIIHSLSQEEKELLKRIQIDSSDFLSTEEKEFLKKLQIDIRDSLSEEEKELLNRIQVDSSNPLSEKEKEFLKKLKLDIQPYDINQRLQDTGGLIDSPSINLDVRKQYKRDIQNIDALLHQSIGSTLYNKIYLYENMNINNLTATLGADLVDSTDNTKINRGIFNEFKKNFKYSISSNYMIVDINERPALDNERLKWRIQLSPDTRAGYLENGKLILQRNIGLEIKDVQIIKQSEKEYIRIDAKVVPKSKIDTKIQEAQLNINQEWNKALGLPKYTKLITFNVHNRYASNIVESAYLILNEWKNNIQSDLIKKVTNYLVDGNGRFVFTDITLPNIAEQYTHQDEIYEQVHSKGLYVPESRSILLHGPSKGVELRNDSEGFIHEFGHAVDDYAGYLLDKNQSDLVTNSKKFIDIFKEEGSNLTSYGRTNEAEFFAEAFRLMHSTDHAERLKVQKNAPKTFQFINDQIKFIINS

T2: EF-Biotin (B. anthracis, UniProt P40136 34-800)
T2 sequence: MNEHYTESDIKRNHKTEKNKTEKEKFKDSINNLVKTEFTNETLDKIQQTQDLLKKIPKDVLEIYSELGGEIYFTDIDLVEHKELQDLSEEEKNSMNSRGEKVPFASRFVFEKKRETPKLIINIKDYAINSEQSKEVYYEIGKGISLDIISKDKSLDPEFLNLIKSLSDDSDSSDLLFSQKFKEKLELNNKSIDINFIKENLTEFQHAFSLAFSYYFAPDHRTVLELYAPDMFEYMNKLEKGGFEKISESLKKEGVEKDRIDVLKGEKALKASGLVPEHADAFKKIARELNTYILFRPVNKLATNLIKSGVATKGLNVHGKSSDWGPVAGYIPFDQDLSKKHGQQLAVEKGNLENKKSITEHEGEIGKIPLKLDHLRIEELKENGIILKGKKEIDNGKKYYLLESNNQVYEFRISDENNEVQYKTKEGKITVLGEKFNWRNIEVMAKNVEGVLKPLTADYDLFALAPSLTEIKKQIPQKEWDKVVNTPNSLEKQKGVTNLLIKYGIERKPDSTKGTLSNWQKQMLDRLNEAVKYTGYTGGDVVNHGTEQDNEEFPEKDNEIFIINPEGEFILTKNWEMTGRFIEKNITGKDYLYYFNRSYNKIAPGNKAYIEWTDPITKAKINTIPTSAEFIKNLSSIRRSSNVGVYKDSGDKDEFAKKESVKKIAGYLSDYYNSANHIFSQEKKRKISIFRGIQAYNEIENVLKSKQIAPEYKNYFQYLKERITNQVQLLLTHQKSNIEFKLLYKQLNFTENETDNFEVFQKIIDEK

B1: clone 1 (VHH)
VHH: EVQLQASGGGFVQPGGSLRLSCAASGDTYRWDNMGWFRQAPGKEREFVSAISGLGNMDSYYADSVKGRFTISRDNSKNTVYLQMNSLRAEDTATYYCAQEEKWMSPQYWGQGTQVTVSS
B2: clone 5 (VHH)
VHH: EVQLQASGGGFVQPGGSLRLSCAASGTTSFRDTMGWFRQAPGKEREFVSAISWNEGHAHYYADSVKGRFTISRDNSKNTVYLQMNSLRAEDTATYYCASEDMWFNHFYWGQGTQVTVSS
B3: clone 6 (VHH)
VHH: EVQLQASGGGFVQPGGSLRLSCAASGTTYSSDTMGWFRQAPGKEREFVSAISGRQNWDRYYADSVKGRFTISRDNSKNTVYLQMNSLRAEDTATYYCAYWGHGTYEFDPKSMYWGQGTQVTVSS
B4: clone 26 (VHH)
VHH: EVQLQASGGGFVQPGGSLRLSCAASGAYSARTTMGWFRQAPGKEREFVSAISAHEGQAPYYADSVKGRFTISRDNSKNTVYLQMNSLRAEDTATYYCATRAHEPKGMYWGQGTQVTVSS
B5: clone 28 (VHH)
VHH: EVQLQASGGGFVQPGGSLRLSCAASGASYRGTSMGWFRQAPGKEREFVSAISFRPDQQPYYADSVKGRFTISRDNSKNTVYLQMNSLRAEDTATYYCAERRQHSRGLYWGQGTQVTVSS
B6: clone 40 (VHH)
VHH: EVQLQASGGGFVQPGGSLRLSCAASGRTFDGSAMGWFRQAPGKEREFVSAISASPSGESYYADSVKGRFTISRDNSKNTVYLQMNSLRAEDTATYYCAGRGRSQKSMYWGQGTQVTVSS
B7: clone 41 (VHH)
VHH: EVQLQASGGGFVQPGGSLRLSCAASGDTWRTTAMGWFRQAPGKEREFVSAISGGDNRGTYYADSVKGRFTISRDNSKNTVYLQMNSLRAEDTATYYCAGRLNQNGPMYWGQGTQVTVSS
B8: clone 42 (VHH)
VHH: EVQLQASGGGFVQPGGSLRLSCAASGDGSFASAMGWFRQAPGKEREFVSAISAHAGGSPYYADSVKGRFTISRDNSKNTVYLQMNSLRAEDTATYYCAQRIGATRAMYWGQGTQVTVSS
B9: clone 7 (VHH)
VHH: EVQLQASGGGFVQPGGSLRLSCAASGTSYANSDMGWFRQAPGKEREFVSAISGGDSAYYYYADSVKGRFTISRDNSKNTVYLQMNSLRAEDTATYYCATQQIGMREYYWGQGTQVTVSS
B10: clone 44 (VHH)
VHH: EVQLQASGGGFVQPGGSLRLSCAASGFTSGSTAMGWFRQAPGKEREFVSAISRFENQGNYYADSVKGRFTISRDNSKNTVYLQMNSLRAEDTATYYCATRAVASSTMYWGQGTQVTVSS
B11: clone 49 (VHH)
VHH: EVQLQASGGGFVQPGGSLRLSCAASGGFFTSSTMGWFRQAPGKEREFVSAISRQHDNAPYYADSVKGRFTISRDNSKNMVYLQMNSLRAEDTATYYCAARNATHKGIYWGQGTQVTVSS
B12: clone 57 (VHH)
VHH: EVQLQASGGGFVQPGGSLRLSCAASGGTSFQTAMGWFRQAPGKEREFVSAISSRQGSHPYYADSVKGRFTISRDNSKNTVYLQMNSLRAEDTATYYCATRMTETRKMYWGQGTQVTVSS
B13: clone 60 (VHH)
VHH: EVQLQASGGGFVQPGGSLRLSCAASGSTFKHSAMGWFRQAPGKEREFVSAISSGPGMESYYADSVKGRFTISRDNSKNTVYLQMNSLRAEDTATYYCAGRAFPGQKMYWGQGTQVTVSS
B14: clone 66 (VHH)
VHH: EVQLQASGGGFVQPGGSLRLSCAASGTGSNASAMGWFRQAPGKEREFVSAISRHEGQPPYYADSVKGRFTISRDNSKNTVYLQMNSLRAEDTATYYCAMRYQSHIDIPGDSSPKLMYWGQGTQVTVSS
B15: clone 8 (VHH)
VHH: EVQLQASGGGFVQPGGSLRLSCAASGSTSSHYDMGWFRQAPGKEREFVSAISYNHDHDTYYADSVKGRFTISRDNSKNTVYLQMNSLRAEDTATYYCAGATATTDGGYQEYWGQGTQVTVSS
B16: clone 9 (VHH)
VHH: EVQLQASGGGFVQPGGSLRLSCAASGSYSAETDMGWFRQAPGKEREFVSAISGDPTTTTYYADSVKGRFTISRDNSKNTVYLQMNSLRAEDTATYYCAYQRLDNFEIYWGQGTQVTVSS
B17: clone 10 (VHH)
VHH: EVQLQASGGGFVQPGGSLRLSCAASGRTSWSEIMGWFRQAPGKEREFVSAISRYTDDYSYYADSVKGRFTISRDNSKNTVYLQMNSLRAEDTATYYCATYHYQYGGDQTFYWGQGTQVTVSS
B18: clone 2 (VHH)
VHH: EVQLQASGGGFVQPGGSLRLSCAASGFFSNIEDMGWFRQAPGKEREFVSAISGYENESPYYADSVKGRFTISRDNSKNTVYLQMNSLRAEDTATYYCAAQSYHGKKGMTEYWGQGTQVTVSS
B19: clone 3 (VHH)
VHH: EVQLQASGGGFVQPGGSLRLSCAASGSTSYSYNMGWFRQAPGKEREFVSAISRDGDWKNYYADSVKGRFTISRDNSKNTVYLQMNSLRAEDTATYYCAFEEHWMTPLYWGQGTQVTVSS
B20: clone 4 (VHH)
VHH: EVQLQASGGGFVQPGGSLRLSCAASGRTFRIDTMGWFRQAPGKEREFVSAISFDTSHENYYADSVKGRFTISRDNSKNTVYLQMNSLRAEDTATYYCAPESMWFSIEYWGQGTQVTVSS

How the values were obtained:
[1] = target: T1, LF-Biotin; assay: non-adsorbed VHH ELISA, IPTG-induced VHH-myc, LF-Biotin vs His-SNAP-Halo-Biotin
[2] = target: T1, LF-Biotin; assay: non-adsorbed phage ELISA, VHH on M13 phage, LF-Biotin vs His-SNAP-Halo-Biotin
[3] = target: T2, EF-Biotin
[4] = target: T2, EF-Biotin; assay: non-adsorbed VHH ELISA, IPTG-induced VHH-myc, EF-Biotin (Ag+) vs control (Ag-)

Binder | Induced ELISA ratio Signal LF/signal His-SNAP-Halo [1] | Phage ELISA ratio signal LF/signal His-SNAP-Halo [2] | Phage ELISA Ag+/Ag- [3] | Phage IPTG Ag+/Ag- [4]
B1 | 6.3 ratio | 45.5 ratio | – | –
B2 | 8 ratio | 41.5 ratio | – | –
B3 | 7.3 ratio | 8.9 ratio | – | –
B4 | – | – | 51.3 ratio | 10.2 ratio
B5 | – | – | 44.5 ratio | 6.6 ratio
B6 | – | – | 31.5 ratio | 6.2 ratio
B7 | – | – | 36.7 ratio | 5.7 ratio
B8 | – | – | 36.2 ratio | 5 ratio
B9 | 6.8 ratio | 17 ratio | – | –
B10 | – | – | 52.7 ratio | 6.1 ratio
B11 | – | – | 36.7 ratio | 3.6 ratio
B12 | – | – | 40.1 ratio | 6.3 ratio
B13 | – | – | 43.6 ratio | 4.9 ratio
B14 | – | – | 51.8 ratio | 5.8 ratio
B15 | 5.5 ratio | 30.2 ratio | – | –
B16 | 4.6 ratio | 38.1 ratio | – | –
B17 | 3.9 ratio | 7.7 ratio | – | –
B18 | 5 ratio | 36.5 ratio | – | –
B19 | 6.3 ratio | 47.2 ratio | – | –
B20 | 9.2 ratio | 34.6 ratio | – | –
